B1: Pistol ribozyme (parent)
chain: GGGUCGUUGUUCCAUAAUCGCGUGGAUAUGGCACGCAAGUUUCUACCGGGCACCGUAAAUGUCCGACUGGAGCCGUUCGGGCGGCUAUAAACAGACCUCAGGCCCGAAGCGUGGCGGCACCUGCCGCCGGUGGUAAAAAAGAUCGGAAGAGCACACGUCU

Variants of: B1
Experiment: aptazyme ON/OFF ratio, guanine; higher = stronger switching; co-transcriptional cleavage with and without guanine

Variant | aptazyme ON/OFF ratio
U7C U8A G9A U11C C12U | 1.13
U7C U8A G9A U11C C12G | 1.16
U7C U8A G9A U11C C12A | 1.23
U7C U8A G9C C12U | 1.05
U7C U8A G9C C12G | 1.13
U7C U8A G9C C12A | 1.17
U7C U8A G9A U11G | 1.09
U7C U8A G9A U11A | 1.17
U7C U8A G9A U11C | 1.06
U7C U8A G9A U10C U11A C12A C13G | 1.1
U7C U8A G9A U10C U11A C12A C13U | 1.15
U7C U8A G9A U10C U11A C12A C13A | 1.13
U7C U8A G9A U10G U11A C12A C13G | 1.17
U7C U8A G9A U10G U11A C12A C13A | 1.18
U7C U8A G9A U10G U11A C12A C13U | 1.17
U7C U8A G9A U11A C12G C13G | 1.19
U7C U8A G9A U11A C12G C13U | 1.19
U7C U8A G9A U11A C12G C13A | 1.15
U7C U8A G9A U10C U11C C13A | 1.03
U7C U8A G9A U10C U11C C13G | 1.05
U7C U8A G9A U10C U11C C13U | 0.994
U7C U8A G9A U10A U11C C12A | 1.16
U7C U8A G9A U10A U11C C12G | 1.21
U7C U8A G9A U10A U11C C12U | 1.09

Variant | aptazyme ON/OFF ratio
U7C U8A G9C U10A C12U | 1.22
U7C U8A G9C U10A C12A | 1.2
U7C U8A G9C U10A C12G | 1.26
U7C U8A G9A U10A U11G C12G C13A | 1.26
U7C U8A G9A U10A U11G C12G C13G | 1.28
U7C U8A G9A U10A U11G C12G C13U | 1.18
U7C U8A G9A U10A U11A C12G C13G | 1.28
U7C U8A G9A U10A U11A C12G C13A | 1.2
U7C U8A G9A U10A U11A C12G C13U | 1.22
U7C U8A G9A U10G U11A C13G | 1.05
U7C U8A G9A U10G U11A C13A | 1.04
U7C U8A G9A U10G U11A C13U | 1.03
U7C U8A G9C U10A C12A C13G | 1.14
U7C U8A G9C U10A C12A C13A | 1.26
U7C U8A G9C U10A C12A C13U | 1.21
U7C U8A G9A U10G U11C | 1.03
U7C U8A G9A U10G U11G | 1.04
U7C U8A G9A U10G U11A | 1.01
U7C U8A G9A U10A U11C C12U C13U | 1.1
U7C U8A G9A U10A U11C C12U C13G | 1.06
U7C U8A G9A U10A U11C C12U C13A | 1.09
U7C U8A G9A U11A C12U C13U | 1.27
U7C U8A G9A U11A C12U C13A | 1.32
U7C U8A G9A U11A C12U C13G | 1.18

Variant | aptazyme ON/OFF ratio
U7C U8A G9C U10A U11A | 1.27
U7C U8A G9C U10A U11C | 1.05
U7C U8A G9C U10A U11G | 1.29
U7C U8A G9C U10A U11C C13G | 1.05
U7C U8A G9C U10A U11C C13U | 1.02
U7C U8A G9C U10A U11C C13A | 1.06
U7C U8A G9C U10A U11A C12U C13A | 1.05
U7C U8A G9C U10A U11A C12U C13U | 1.11
U7C U8A G9C U10A U11A C12U C13G | 1.1
U7C U8A G9C U10A U11A C12A | 1.16
U7C U8A G9C U10A U11A C12U | 1.2
U7C U8A G9C U10A U11A C12G | 1.18
U7C U8A G9C U10A U11A C12A C13U | 1.2
U7C U8A G9C U10A U11A C12A C13G | 1.12
U7C U8A G9C U10A U11A C12A C13A | 1.19
U7C U8A G9A C12A C13G | 1.2
U7C U8A G9A C12A C13A | 1.21
U7C U8A G9A C12A C13U | 1.15
U7C U8A G9A U10A U11C | 1.02
U7C U8A G9A U10A U11A | 1.22
U7C U8A G9A U10A U11G | 1.31
U7C U8A G9A U10A U11A C12A C13A | 1.24
U7C U8A G9A U10A U11A C12A C13U | 1.18
U7C U8A G9A U10A U11A C12A C13G | 1.18

Variant | aptazyme ON/OFF ratio
U7C U8A G9A U10G U11G C13G | 1.05
U7C U8A G9A U10G U11G C13U | 1.04
U7C U8A G9A U10G U11G C13A | 1.11
U7C U8A G9A U10G C12U C13A | 1.26
U7C U8A G9A U10G C12U C13U | 0.977
U7C U8A G9A U10G C12U C13G | 1.14
U7C U8A G9A U10A U11A C12U C13G | 1.17
U7C U8A G9A U10A U11A C12U C13U | 1.13
U7C U8A G9A U10A U11A C12U C13A | 1.2
U7C U8A G9A U10C C12A C13U | 1.24
U7C U8A G9A U10C C12A C13A | 1.14
U7C U8A G9A U10C C12A C13G | 1.16
U7C U8A G9A U10G C12G C13A | 1.1
U7C U8A G9A U10G C12G C13G | 1.04
U7C U8A G9A U10G C12G C13U | 1.27
U7C U8A G9A U10G C12A C13G | 1.15
U7C U8A G9A U10G C12A C13U | 1.25
U7C U8A G9A U10G C12A C13A | 1.14
U7C U8A G9A U10G C13U | 1.39
U7C U8A G9A U10G C13G | 1.08
U7C U8A G9A U10G C13A | 1.17
U7C U8A G9A U11G C12A C13U | 1.09
U7C U8A G9A U11G C12A C13A | 1.19
U7C U8A G9A U11G C12A C13G | 1.21

Variant | aptazyme ON/OFF ratio
U7C U8A G9A U10A U11A C13U | 1.1
U7C U8A G9A U10A U11A C13G | 1.12
U7C U8A G9A U10A U11A C13A | 1.16
U7C U8A G9C U10A U11C C12G C13A | 1.29
U7C U8A G9C U10A U11C C12G C13U | 1.36
U7C U8A G9C U10A U11C C12G C13G | 1.29
U7C U8A G9A U10G U11A C12U | 1.01
U7C U8A G9A U10G U11A C12G | 1.16
U7C U8A G9A U10G U11A C12A | 1.15
U7C U8A G9C C13U | 1.05
U7C U8A G9C C13G | 1.04
U7C U8A G9C C13A | 1.02
U7C U8A G9A U10C C12G C13U | 1.19
U7C U8A G9A U10C C12G C13G | 1.1
U7C U8A G9A U10C C12G C13A | 1.13
U7C U8A G9A U10A C12G C13U | 1.27
U7C U8A G9A U10A C12G C13G | 1.24
U7C U8A G9A U10A C12G C13A | 1.23
U7C U8A G9A U10C U11C C12G C13G | 1.17
U7C U8A G9A U10C U11C C12G C13U | 1.07
U7C U8A G9A U10C U11C C12G C13A | 1.13
U7C U8A G9C C12G C13U | 1.09
U7C U8A G9C C12G C13G | 1.14
U7C U8A G9C C12G C13A | 1.14

Variant | aptazyme ON/OFF ratio
U7C U8A G9A U10C | 3.41
U7C U8A G9A U10A | 1.69
U7C U8A G9A U10G | 1.38
U7C U8A G9A U10C C13G | 1.05
U7C U8A G9A U10C C13U | 1.51
U7C U8A G9A U10C C13A | 1.03
U7C U8A G9A U11C C12A C13U | 1.28
U7C U8A G9A U11C C12A C13A | 1.15
U7C U8A G9A U11C C12A C13G | 1.15
U7C U8A G9A U10C U11A C12G C13G | 1.17
U7C U8A G9A U10C U11A C12G C13A | 1.12
U7C U8A G9A U10C U11A C12G C13U | 1.18
U7C U8A G9A U11G C13U | 1.25
U7C U8A G9A U11G C13G | 1.04
U7C U8A G9A U11G C13A | 1.18
U7C U8A G9C C12U C13A | 1.12
U7C U8A G9C C12U C13G | 1.07
U7C U8A G9C C12U C13U | 1.19
U7C U8A G9A U10G U11C C12A C13U | 1.18
U7C U8A G9A U10G U11C C12A C13G | 1.1
U7C U8A G9A U10G U11C C12A C13A | 1.15
U7C U8A G9C U10A U11G C12A | 1.06
U7C U8A G9C U10A U11G C12G | 1.31
U7C U8A G9C U10A U11G C12U | 1.21

Variant | aptazyme ON/OFF ratio
U7C U8A G9A U10C U11G C12U C13G | 1.27
U7C U8A G9A U10C U11G C12U C13A | 1.17
U7C U8A G9A U10C U11G C12U C13U | 1.26
U7C U8A G9C | 1.04
U7C U8A G9A | 1.22
U7C U8A G9A U10A C12U C13A | 1.15
U7C U8A G9A U10A C12U C13G | 1.14
U7C U8A G9A U10A C12U C13U | 1.28
U7C U8A G9A U10C C12U C13A | 1.11
U7C U8A G9A U10C C12U C13G | 1.11
U7C U8A G9A U10C C12U C13U | 1.26
U7C U8A G9A C12G C13G | 1.22
U7C U8A G9A C12G C13U | 1.17
U7C U8A G9A C12G C13A | 1.17
U7C U8A G9A U10A U11C C13U | 1.05
U7C U8A G9A U10A U11C C13A | 1.03
U7C U8A G9A U10A U11C C13G | 1.03
U7C U8A G9A U11A C13U | 1.14
U7C U8A G9A U11A C13G | 1.04
U7C U8A G9A U11A C13A | 1.17
U7C U8A G9A C12U | 1.3
U7C U8A G9A C12G | 1.26
U7C U8A G9A C12A | 1.32
